Assays:
[1] = biological target: T1, Fur (ferric uptake regulator) (Neisseria gonorrhoeae F62, UniProt Q51008 1-144); experiment: IRIS; 400 nM Fur (concentration implied); ~1 dimer/dsDNA; 20 mM Tris-Cl pH 7.9, 5 mM MgCl2, 40 mM KCl, 0.125 mM MnCl2, 2 mM DTT, 10% glycerol, 0.19 ug/uL poly dIdC (EMSA also 3.125 ug/uL BSA), RT; IRIS 2 hr, EMSA 30 min with 12.5 nM probe; conditions: protein: recombinant; tags: N-terminal 6xHis (pET15b) cleaved with thrombin and removed; chain copies: 2; label: surface-immobilized; blunt
T1 sequence: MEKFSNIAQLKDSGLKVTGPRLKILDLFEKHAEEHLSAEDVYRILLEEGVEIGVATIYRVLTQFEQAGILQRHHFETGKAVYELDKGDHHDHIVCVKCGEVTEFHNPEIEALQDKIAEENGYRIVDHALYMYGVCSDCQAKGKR

[2] = biological target: T1, Fur (ferric uptake regulator); experiment: IRIS; 400 nM Fur; 0.5 dimer/dsDNA; 20 mM Tris-Cl pH 7.9, 5 mM MgCl2, 40 mM KCl, 0.125 mM MnCl2, 2 mM DTT, 10% glycerol, 0.19 ug/uL poly dIdC (EMSA also 3.125 ug/uL BSA), RT; IRIS 2 hr, EMSA 30 min with 12.5 nM probe; conditions: protein: recombinant; tags: N-terminal 6xHis (pET15b) cleaved with thrombin and removed; chain copies: 2; label: surface-immobilized; blunt
[3] = biological target: T1, Fur (ferric uptake regulator); experiment: IRIS; 200 nM Fur; 1 dimer/dsDNA; 20 mM Tris-Cl pH 7.9, 5 mM MgCl2, 40 mM KCl, 0.125 mM MnCl2, 2 mM DTT, 10% glycerol, 0.19 ug/uL poly dIdC (EMSA also 3.125 ug/uL BSA), RT; IRIS 2 hr, EMSA 30 min with 12.5 nM probe; conditions: protein: recombinant, tags: N-terminal 6xHis (pET15b) cleaved with thrombin and removed, chain copies: 2, blunt
[4] = biological target: T1, Fur (ferric uptake regulator); experiment: IRIS; no DSH increase up to 800 nM Fur; 20 mM Tris-Cl pH 7.9, 5 mM MgCl2, 40 mM KCl, 0.125 mM MnCl2, 2 mM DTT, 10% glycerol, 0.19 ug/uL poly dIdC (EMSA also 3.125 ug/uL BSA), RT; IRIS 2 hr, EMSA 30 min with 12.5 nM probe; conditions: protein: recombinant; tags: N-terminal 6xHis (pET15b) cleaved with thrombin and removed; chain copies: 2; label: surface-immobilized; blunt
[5] = biological target: T1, Fur (ferric uptake regulator); experiment: EMSA; Mn2+; apparent Kd; 20 mM Tris-Cl pH 7.9, 5 mM MgCl2, 40 mM KCl, 0.125 mM MnCl2, 2 mM DTT, 10% glycerol, 0.19 ug/uL poly dIdC (EMSA also 3.125 ug/uL BSA), RT; IRIS 2 hr, EMSA 30 min with 12.5 nM probe; conditions: protein: recombinant; tags: N-terminal 6xHis (pET15b) cleaved with thrombin and removed; chain copies: 2; label: surface-immobilized (IRIS); 32P (EMSA); blunt

B1: NGO1189 promoter probe (dsDNA)
DNA 1: ACTGCCGGTTTGAAAAAAGAATCCATATCGGTGTTTCCGCGCAGGAGGC
DNA 2: GCCTCCTGCGCGGAAACACCGATATGGATTCTTTTTTCAAACCGGCAGT
modifications: 5' amino-C6 on strand 1
binding signal [1]: 2 ± 0.03 nm DSH

B2: NGO1845 promoter probe (dsDNA)
DNA 1: CGGCAAACAAGAAAATCATCTTTTTTCTTGTCGTTATGCTTGACTGTCT
DNA 2: AGACAGTCAAGCATAACGACAAGAAAAAAGATGATTTTCTTGTTTGCCG
modifications: 5' amino-C6 on strand 1
binding signal [2]: 1.7 ± 0.3 nm DSH

B3: NGO0641 promoter probe (dsDNA)
DNA 1: AAAGACAGCAAAGAATTGATTTTATTATAATTTATTTGTAAAGCCATTT
DNA 2: AAATGGCTTTACAAATAAATTATAATAAAATCAATTCTTTGCTGTCTTT
modifications: 5' amino-C6 on strand 1
binding signal ([3]; label: surface-immobilized): 2 ± 0.1 nm DSH

B4: NGO1284 promoter probe (dsDNA)
DNA 1: ACACGGGAAATAATATCAATATATTGATTTACAAACATAAAAATCATGC
DNA 2: GCATGATTTTTATGTTTGTAAATCAATATATTGATATTATTTCCCGTGT
modifications: 5' amino-C6 on strand 1
binding signal [2]: 1.7 ± 0.03 nm DSH

B5: NGO1948 promoter probe (dsDNA)
DNA 1: TCTTTCCGTCAAAATACTTTCTTTTTATATTCATTAACTTGTTAAATTA
DNA 2: TAATTTAACAAGTTAATGAATATAAAAAGAAAGTATTTTGACGGAAAGA
modifications: 5' amino-C6 on strand 1
binding signal [2]: 1.7 ± 0.07 nm DSH

B6: NGO1745 promoter probe (dsDNA)
DNA 1: TACAGATGAAGACAATGAGCGTGCTGTTAAAGAGTTATTTAAGTCATTT
DNA 2: AAATGACTTAAATAACTCTTTAACAGCACGCTCATTGTCTTCATCTGTA
modifications: 5' amino-C6 on strand 1
binding result [4]: no binding

B7: NGO1683 promoter probe (NGO1684 in Table 1) (dsDNA)
DNA 1: GCGGCGATTGTAATATAAGCGGCGGTATTTGTGTAGTTTTCTTCAGACG
DNA 2: CGTCTGAAGAAAACTACACAAATACCGCCGCTTATATTACAATCGCCGC
modifications: 5' amino-C6 on strand 1
binding result [4]: no binding

B8: NGO1419 promoter probe (dsDNA)
DNA 1: TGACGAAAAAACAAAGAAGTATACTTCTTTTTAGTTATGGTTGATTCCA
DNA 2: TGGAATCAACCATAACTAAAAAGAAGTATACTTCTTTGTTTTTTCGTCA
modifications: 5' amino-C6 on strand 1
binding signal ([3]; label: surface-immobilized): 1.9 ± 0.4 nm DSH

B9: NGO0155 promoter probe (dsDNA)
DNA 1: GATATTTTGTGCTAAAAATTTATATAATATTTAAATTAATATCAAGTTA
DNA 2: TAACTTGATATTAATTTAAATATTATATAAATTTTTAGCACAAAATATC
modifications: 5' amino-C6 on strand 1
binding signal [1]: 1.9 ± 0.1 nm DSH

B10: NGO0899 promoter probe (dsDNA)
DNA 1: TTTTATGCCGAAAATTGATTTTTTTTAAATTTTTTGTTTCTAAAATTTT
DNA 2: AAAATTTTAGAAACAAAAAATTTAAAAAAAATCAATTTTCGGCATAAAA
modifications: 5' amino-C6 on strand 1
binding signal [1]: 2.2 ± 0.1 nm DSH

B11: NGO0073 promoter probe (dsDNA)
DNA 1: CTGTATAAATGATAATGGTTCTATTTTAATAAAGCACAACGCGGCTTGT
DNA 2: ACAAGCCGCGTTGTGCTTTATTAAAATAGAACCATTATCATTTATACAG
modifications: 5' amino-C6 on strand 1 (IRIS)
Kd [5]: 39.8 ± 6.3 nM

B12: NGO0101 promoter probe (dsDNA)
DNA 1: CATATTTGAATATAAAAAAGAGCATTGTTGCGTTATCCAATGCTGTAAT
DNA 2: ATTACAGCATTGGATAACGCAACAATGCTCTTTTTTATATTCAAATATG
modifications: 5' amino-C6 on strand 1 (IRIS)
Kd [5]: 406 ± 145 nM
binding signal ([3]; label: surface-immobilized (IRIS), 32P (EMSA)): 1.9 ± 0.4 nm DSH

B13: NGO0304 promoter probe (dsDNA)
DNA 1: GAACGAAAATTGATAAAACAAAAGTTAATTAATTGATTGAGAACATAAC
DNA 2: GTTATGTTCTCAATCAATTAATTAACTTTTGTTTTATCAATTTTCGTTC
modifications: 5' amino-C6 on strand 1
binding signal [1]: 2 ± 0.1 nm DSH

B14: fur promoter Fur box probe (dsDNA)
DNA 1: CTGCTTGAATATTTTATAAAAGCGAACGATAATCATACGCTTAAGCGGT
DNA 2: ACCGCTTAAGCGTATGATTATCGTTCGCTTTTATAAAATATTCAAGCAG
modifications: 5' amino-C6 on strand 1 (IRIS)
Kd [5]: 31.8 ± 7.9 nM

— paper PMC4014563, “A High-Throughput Method to Examine Protein-Nucleotide Interactions Identifies Targets of the Bacterial Transcriptional Regulatory Protein Fur”
